According to publication PMC2771873 (2009):
Ends that are not written are not given here.

Target: T1, RyRP12 peptide (ryanodine receptor 1) RyRP12 (UniProt P21817, also: TAMRA label, position not given here)
T1 chain: KKAVWHKLLSKQ
Assay: fluorescence anisotropy

B1: S100A1 (protein)
chain: MGSELETAMETLINVFHAHSGKEGDKYKLSKKELKDLLQTELSSFLDVQKDADAVDKIMKELDENGDGEVDFQEFVVLVAALTVACNNFFWENS
Kd: 139 nM
